Read-outs that look alike come from different tables or passages of the source. Non-standard residues stand in square brackets, D forms with d. Residues, ends and D or L forms follow the SMILES beside them. *: point of attachment. Phe(4-CH2SO3H) = N[C@@H](Cc1ccc(CS(=O)(=O)O)cc1)C(=O)O; Bta = N[C@@H](Cc1csc2ccccc12)C(=O)O; Aad = N[C@@H](CCCC(=O)O)C(=O)O; X1 = CCOc1ccc2ccccc2c1C(=O)*; X2 = COc1ccc2ccccc2c1C(=O)*; αMeP = C[C@@]1(C(=O)O)CCCN1; Nle = CCCC[C@H](N)C(=O)O; Nva = CCC[C@H](N)C(=O)O; NHtBu = CC(C)(C)N*; OtBu = CC(C)(C)O*
Tests used:
[1] = biological target: Cdc25A (human); assay: cell-based or functional assay
[2] = biological target: T1, Cdc25A (Homo sapiens, UniProt P30304); assay: Inhibition of Cdc25A enzymatic activity (IC50); type: biochemical
T1 sequence (P30304 1-524): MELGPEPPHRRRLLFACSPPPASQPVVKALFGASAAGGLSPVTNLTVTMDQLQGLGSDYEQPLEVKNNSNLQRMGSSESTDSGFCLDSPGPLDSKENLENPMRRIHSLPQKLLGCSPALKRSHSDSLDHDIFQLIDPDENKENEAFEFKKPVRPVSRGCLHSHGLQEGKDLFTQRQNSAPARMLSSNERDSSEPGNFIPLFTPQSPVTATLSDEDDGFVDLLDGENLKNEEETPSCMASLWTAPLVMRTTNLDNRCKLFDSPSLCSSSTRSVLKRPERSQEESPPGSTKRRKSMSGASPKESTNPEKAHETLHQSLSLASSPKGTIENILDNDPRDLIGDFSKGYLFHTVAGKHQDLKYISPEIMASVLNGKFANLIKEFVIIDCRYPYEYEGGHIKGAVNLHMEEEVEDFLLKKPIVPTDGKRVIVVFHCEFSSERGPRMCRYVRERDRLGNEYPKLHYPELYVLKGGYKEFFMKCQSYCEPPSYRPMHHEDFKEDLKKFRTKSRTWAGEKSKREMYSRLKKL
Description: A compound which is identified by one of the foregoing methods as a potential inhibitor of Cdc25 can then be obtained, for example, by synthesis or from a compound library, and assessed for the ability to inhibit Cdc25 in vitro. Such an in vitro assay can be performed as is known in the art, for example, by contacting Cdc25 in solution with the test compound in the presence of a substrate for Cdc25. The rate of substrate transformation can be determined in the presence of the test compound and compared with the rate in the absence of the test compound. Suitable assays for Cdc25 biological activity are described in U.S. Pat. Nos. 5,861,249; 5,695,950; 5,443,962; and 5,294,538, the teachings of each of which are hereby incorporated by reference herein in their entirety.

Row | Molecule | IC50 [1] | IC50 [2] | further results
1 | 2-EtO-naphthyl-1-CO-Smp-Glu(tBu)-Pro-Bta-Aad-NHtBu (peptide) | 1100 nM | – | –
2 | COc1ccc2ccccc2c1C(=O)N[C@@H](Cc1ccc(CS(=O)(=O)O)cc1)C(=O)N[C@@H](CCC(=O)O)C(=O)N[C@@H](CCC(=O)O)C(=O)N[C@@H](Cc1csc2ccccc12)C(=O)N[C@@H](CCCC(=O)O)C(=O)NC(C)(C)C [cdc1671, 2-CH3O-1-naphthyl-CO—Smp—Glu—Glu—Bta—Aad—NHtBu] (X2-[Phe(4-CH2SO3H)]EE[Bta][Aad]-NHtBu) | – | – | IC50 ([2]; inhibits Cdc25A, read-out: IC50): 5000 nM
3 | 2-EtO-naphthyl-1-CO-Smp-Nle-Pro-Bta-Aad-NHtBu (peptide) | 2500 nM | – | –
4 | CCC[C@H](NC(=O)[C@H](Cc1ccc(CS(=O)(=O)O)cc1)NC(=O)c1c(OCC)ccc2ccccc12)C(=O)N1CCC[C@@]1(C)C(=O)N[C@@H](Cc1csc2ccccc12)C(=O)N[C@@H](CCCC(=O)O)C(=O)NC(C)(C)C [cdc1749] (X1-[Phe(4-CH2SO3H)][Nva][αMeP][Bta][Aad]-NHtBu) | – | 1500 nM | –
5 | 2-EtO-naphthyl-1-CO-Smp-Nva-MePro-Bta-Aad-NHtBu (peptide) | 1500 nM | – | –
6 | 2-CH3O-1-naphthyl-CO-Smp-Glu-Glu-Bta-Aad-NHtBu (peptide) | 5000 nM | – | –
7 | CCCC[C@H](NC(=O)[C@H](Cc1ccc(CS(=O)(=O)O)cc1)NC(=O)c1c(OCC)ccc2ccccc12)C(=O)N1CCC[C@H]1C(=O)N[C@@H](Cc1csc2ccccc12)C(=O)N[C@@H](CCCC(=O)O)C(=O)NC(C)(C)C [cdc1748] (X1-[Phe(4-CH2SO3H)][Nle]P[Bta][Aad]-NHtBu) | – | 2500 nM | –
8 | 2-EtO-naphthyl-1-CO-Smp-Glu-Pro-Bta-Aad-NHtBu (peptide) | 2200 nM | – | increase in potency compared to cdc1671 [1]: 2 fold
9 | CCOc1ccc2ccccc2c1C(=O)N[C@@H](Cc1ccc(CS(=O)(=O)O)cc1)C(=O)N[C@@H](CCC(=O)OC(C)(C)C)C(=O)N1CCC[C@H]1C(=O)N[C@@H](Cc1csc2ccccc12)C(=O)N[C@@H](CCCC(=O)O)C(=O)NC(C)(C)C [cdc1719] (X1-[Phe(4-CH2SO3H)]E(OtBu)P[Bta][Aad]-NHtBu) | – | 1100 nM | –
10 | CCOc1ccc2ccccc2c1C(=O)N[C@@H](Cc1ccc(CS(=O)(=O)O)cc1)C(=O)N[C@@H](CCC(=O)O)C(=O)N1CCC[C@H]1C(=O)N[C@@H](Cc1csc2ccccc12)C(=O)N[C@@H](CCCC(=O)O)C(=O)NC(C)(C)C [cdc1763] (X1-[Phe(4-CH2SO3H)]EP[Bta][Aad]-NHtBu) | – | 2200 nM | increase in potency compared to cdc1671 ([2]; Cdc25A IC50 relative to cdc1671): two-fold

Reference: patent US20020183249A1, “Method of identifying inhibitors of CDC25” (priority 1999, published 2002)
